Changes are numbered by the printed parent chain. Where two headings read alike, the source gives them in different places. Blank lines part the entries; values can stand above or below the binder they belong to.
Tests used:
[1] = target: T1, recombinant human TIM-3-Fc fusion protein (huTIM-3-Fc) (human, UniProt Q8TDQ0 22-200); assay: competition ELISA on coated Fc-TIM-3, competitor galectin-9
T1 construct: range 22-200; Bought from R&D Systems (NS0-derived); Deglycosylated for HDX-MS; also called recombinant human Fc-TIM-3 chimera; TIM-3 IgG1 Fc Chimera; not shown: IgG1 Fc of the bought chimera

[2] = target: T2, cyno TIM-3 on transfected cells (cyno, UniProt A0A2K5U3G7 22-294); assay: binding to cells transfected with cyno TIM-3
T2 construct: whole, on cells; also called Cyno cells
T2 sequence: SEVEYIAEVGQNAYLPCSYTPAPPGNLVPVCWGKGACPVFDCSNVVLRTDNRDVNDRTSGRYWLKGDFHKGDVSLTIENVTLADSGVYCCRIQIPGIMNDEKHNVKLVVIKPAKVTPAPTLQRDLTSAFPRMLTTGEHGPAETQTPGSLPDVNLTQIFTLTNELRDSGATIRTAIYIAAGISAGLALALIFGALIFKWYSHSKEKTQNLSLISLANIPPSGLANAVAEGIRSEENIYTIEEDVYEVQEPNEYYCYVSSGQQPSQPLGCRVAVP

[3] = target: T3, Full length human TIM-3 on transfected cells (human, UniProt Q8TDQ0 22-301); assay: binding to cells transfected with human TIM-3
T3 construct: also called Human cells

[4] = target: T4, Full length human PD1 (huPD1) on cells (human, UniProt Q15116 25-288); assay: flow cytometry, PHA-stimulated Jurkat cells
T4 construct: on T cells of human donors in the MLR and CMV assays (functional); also called PD-1 on Jurkat cells
T4 sequence (Q15116 25-288 limits assumed): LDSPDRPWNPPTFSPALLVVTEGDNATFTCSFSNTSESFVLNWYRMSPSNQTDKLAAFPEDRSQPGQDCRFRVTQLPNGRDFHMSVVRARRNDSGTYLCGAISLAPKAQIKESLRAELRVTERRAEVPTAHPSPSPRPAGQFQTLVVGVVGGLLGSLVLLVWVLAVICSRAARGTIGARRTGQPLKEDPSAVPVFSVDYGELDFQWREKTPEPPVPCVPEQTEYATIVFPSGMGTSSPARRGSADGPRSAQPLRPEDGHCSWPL
Experimental: (§1) Jurkat cells were stimulated overnight with 20 ng/ml of PHA, harvested, washed, and checked for viability. The cells were then incubated at 6-10° C. for 45-60 minutes with various concentrations of test antibodies, washed and incubated at 6-10° C. for 45-60 minutes with FITC-labeled goat anti-human IgG. The cells were washed and fixed with BD Cytofix, refrigerated overnight and analyzed on a MACSQuant flow cytometer. The percentage of PD-1 positive cells at each antibody concentration was plotted vs log of the antibody concentration and EC₅₀ values were generated in Prism.

[5] = target: T5, Extracellular domain of cyno PD1 (cPD1-ECD) (Macaca fascicularis (cynomolgus)); assay: SPR ProteOn, cynoPD1-ECD; RANGE high replicate; RANGE high replicate
T5 construct: Expressed with a hexahistidine tag or as Fc fusion; also called cynoPD1-ECD; cynoPD-1-ECD
T5 chain: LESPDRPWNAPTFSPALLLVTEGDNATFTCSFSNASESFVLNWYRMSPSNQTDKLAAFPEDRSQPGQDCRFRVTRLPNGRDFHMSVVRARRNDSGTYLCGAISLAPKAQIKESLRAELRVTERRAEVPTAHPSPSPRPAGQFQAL
Experimental: (§2) Affinity measurements using Surface Plasmon Resonance (SPR) were performed using a ProteOn XPR36 system. A biosensor surface was prepared by coupling a mixture of anti-IgG Fc modified alginate polymer layer surface of a GLC chip using the manufacturer instructions for amine-coupling chemistry. […] The collected data were processed and fitted to a Langmuir 1:1 binding model. The result for each mAb was reported in the format of kₒₙ (On-rate), koff (Off-rate) and KD (equilibrium dissociation constant).
(§3) STDEV were calculated for 3 or more replicates generated for human and cyno proteins. If less than 3 replicates were calculated, RANGE was indicated. RANGE is defined as the low and high values for the replicates tested. For samples in the Table 10 or Table 11 without value indicated in RANGE or STDEV, only one experiment was performed.

[6] = target: T5, Extracellular domain of cyno PD1 …; assay: SPR ProteOn, captured mAb, cynoPD1-ECD analyte
[7] = target: T5, Extracellular domain of cyno PD1 …; assay: SPR ProteOn, cynoPD1-ECD; RANGE high replicate
Experimental: as §2, §3

[8] = target: T5, Extracellular domain of cyno PD1 …; assay: SPR ProteOn, cynoPD1-ECD; RANGE low replicate; RANGE low replicate
Experimental: as §2
STDEV were calculated for 3 or more replicates generated for human and cyno proteins. If less than 3 replicates were calculated, RANGE was indicated. RANGE is defined as the low and high values for the replicates tested.

[9] = target: T6, Extracellular domain of human PD1 (huPD1-ECD) (human, UniProt Q15116 25-169, biotinylated in the ligand inhibition assay (sites not given)); assay: SPR ProteOn, captured mAb, huPD1-ECD analyte
T6 construct: Expressed with a hexahistidine tag or as Fc fusion; also called biotinylated PD-1
T6 sequence (Q15116 25-169 limits assumed): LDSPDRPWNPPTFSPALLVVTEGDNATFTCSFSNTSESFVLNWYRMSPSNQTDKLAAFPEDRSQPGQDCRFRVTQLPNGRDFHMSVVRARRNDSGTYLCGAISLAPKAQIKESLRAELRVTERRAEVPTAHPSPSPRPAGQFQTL

[10] = target: T6, Extracellular domain of human PD1 …; assay: MSD ligand inhibition, competitor coated cynoPDL1-ECD
Experimental: The ligand inhibition assay design was MSD (Mescoscale Discovery) based. A MSD plate was directly coated with ligand (cynoPDL1-ECD, huPDL1-ECD or huPDL2-ECD) and incubated overnight at 4° C. The following day, the coating solution was removed and the plate was blocked. […] Depending on the panel of antibodies to be tested, the antibodies were tested as titrations or at a fixed concentration. […] The mAbs that were positive for inhibition of ligand binding at one concentration were also tested in dose responses for inhibition of various PD-1 ligands.
Select Fabs were cloned as IgG2sigma isotype and characterized for their Jurkat cell binding and cynomolgus PD-L1 ligand inhibition at concentrations 1 μg/ml and 10 μg/ml.

[11] = target: T5, Extracellular domain of cyno PD1 …; assay: SPR ProteOn, cynoPD1-ECD; RANGE low replicate
Experimental: as §2, §3

[12] = target: T5, Extracellular domain of cyno PD1 …; assay: SPR ProteOn, captured mAb, cynoPD1-ECD analyte
[13] = target: T6, Extracellular domain of human PD1 …; assay: SPR ProteOn, captured mAb; antigen species not given
[14] = target: T5, Extracellular domain of cyno PD1 …; assay: SPR ProteOn, cynoPD1-ECD; RANGE high replicate; RANGE high replicate
Experimental: as §2
(§4) STDEV were calculated for 3 or more replicates generated for human and cyno proteins. If less than 3 replicates were calculated, RANGE is indicated. RANGE is defined as the low and high values for the replicates tested. For samples without RANGE or STDEV, only one experiment was performed

[15] = target: T6, Extracellular domain of human PD1 …; assay: MSD ligand inhibition, competitor coated cynoPDL1-ECD; remark: listed apart in the source
Experimental: (§5) The ligand inhibition assay design was MSD (Mescoscale Discovery) based. A MSD plate was directly coated with ligand (cynoPDL1-ECD, huPDL1-ECD or huPDL2-ECD) and incubated overnight at 4° C. The following day, the coating solution was removed and the plate was blocked. […] Depending on the panel of antibodies to be tested, the antibodies were tested as titrations or at a fixed concentration.

[16] = target: T6, Extracellular domain of human PD1 …; assay: SPR ProteOn, huPD1-ECD; RANGE high replicate
Experimental: as §2, §4

[17] = target: T6, Extracellular domain of human PD1 …; assay: SPR ProteOn, captured mAb, huPD1-ECD analyte; remark: listed apart in the source
[18] = target: T6, Extracellular domain of human PD1 …; assay: SPR ProteOn, huPD1-ECD; RANGE high replicate; RANGE high replicate
Experimental: as §2, §4

[19] = target: T6, Extracellular domain of human PD1 …; assay: SPR ProteOn, huPD1-ECD; RANGE low replicate
Experimental: as §2, §4

[20] = target: T5, Extracellular domain of cyno PD1 …; assay: SPR ProteOn, cynoPD1-ECD; RANGE high replicate
Experimental: as §2, §4

[21] = target: T4, Full length human PD1 (huPD1) on cells; assay: flow cytometry, PHA-stimulated Jurkat cells; remark: listed apart in the source
Experimental: as §1

[22] = target: T5, Extracellular domain of cyno PD1 …; assay: SPR ProteOn, cynoPD1-ECD; RANGE low replicate
Experimental: as §2, §4

[23] = target: T6, Extracellular domain of human PD1 …; assay: MSD ligand inhibition, competitor coated huPDL2-ECD
Experimental: as §5

[24] = target: T6, Extracellular domain of human PD1 …; assay: MSD ligand inhibition, competitor coated huPDL1-ECD
Experimental: as §5

Galectin 9 Inhibition, % inhibition (maximal) [1]: 60.7%
EC50 [2]: 0.08 µg/mL
EC50 [3]: 0.35 µg/mL
B1: TM3B190 (antibody, V domains shown)
VH: DVQLQESGPGLVKPSQSLSLTCTVTGYSITSDYAWNWIRQFPGNKLEWMGYINYSGRTSYNPSLKSRISITRDTSKNQFFLQLNSVTTEDTATYYCTSGGNFDYWGQGTTLTVSS
VL: DIVMTQSPSSMSASLGDRITITCQATQDIVKNLNWYQQKPGKPPSFLIHYVTELAEGVPSRFSGSGSGSDYSLTISNLESEDFADYYCLQFYEFPLTFGAGTKLELK
notes: Mouse-derived variable domains; also called TM3H96/TM3L62

Galectin 9 Inhibition, % inhibition (maximal) [1]: 69.8%
EC50 [2]: 0.03 µg/mL
EC50 [3]: 0.46 µg/mL
B3: TM3B105 (antibody, human IgG2, kappa, V domains shown)
VH: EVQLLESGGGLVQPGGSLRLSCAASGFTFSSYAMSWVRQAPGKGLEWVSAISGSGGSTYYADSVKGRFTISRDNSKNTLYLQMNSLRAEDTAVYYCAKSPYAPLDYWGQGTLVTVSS
VL: EIVLTQSPATLSLSPGERATLSCRASQSVNDYLAWYQQKPGQAPRLLIYDASNRATGIPARFSGSGSGTDFTLTISSLEPEDFAVYYCQQGGHAPITFGQGTKVEIKR
notes: IgG2sigma/kappa; VH 146, VL 156; also called TM3H24/TM3L33

Galectin 9 Inhibition, % inhibition (maximal) [1]: 76.4%
EC50 [2]: 0.19 µg/mL
EC50 [3]: 0.74 µg/mL
B5: TM3B189 (antibody, V domains shown)
VH: EVQLQQSGPELLKPGASVKMSCKASGYTFTSYVMYWVKQKPGQGLEWIGYINPYNDGTKYNEKFKGKATLTSDKSSSTAYMELSRLTSEDSAVYYCTRDDYDVAPFAYWGQGTLVTVSA
VL: DIVLTQSPASLAVSLGQRATISCRASESLDSYGNSYIHWYQQKPGQPPKLLIYLASNLESGVPARFSGSGSKTDFTLTIDPVEADDPATYYCQQNNEDPFTFGSGTKLEIK
notes: Mouse-derived variable domains; also called TM3H141/TM3L61

EC50 [4]: 0.09 µg/mL
koff [5]: 0.00673 s⁻¹
kon [5]: 230000 M⁻¹ s⁻¹
Kd [6]: 30 nM
koff [6]: 0.0064 s⁻¹
kon [6]: 214000 M⁻¹ s⁻¹
Kd [7]: 34 nM
koff [8]: 0.00606 s⁻¹
Kd [9]: 23 nM
koff [9]: 0.00972 s⁻¹
kon [9]: 422000 M⁻¹ s⁻¹
percentage ligand not blocked at 1 µg/ml [10]: 6%
percentage ligand not blocked at 10 µg/ml [10]: 5%
Kd [11]: 26 nM
kon [11]: 198000 M⁻¹ s⁻¹
B7: PD1B175 (antibody, V domains shown)
VH: QVQLVQSGAEVKKPGSSVKVSCKASGGTFKSYVIHWVRQAPGQGLEWMGGIIPIFGTANYAQKFQGRVTITADESTSTAYMELSSLRSEDTAVYYCARGYVRATGMLDYWGQGTLVTVSS
VL: EIVLTQSPATLSLSPGERATLSCRASQSVSSYLAWYQQKPGQAPRLLIYDASNRATGIPARFSGSGSGTDFTLTISSLEPEDFAVYYCQQRSNWPLTFGQGTKVEIK
notes: Tested as IgG2sigma; also called PD1H163/PH9L3

Further lines, the binder ahead of its results:

B2: PD1B162 (antibody, human IgG2, kappa, V domains shown)
VH: QVQLVQSGAEVKKPGSSVKVSCKASGGTFSSYAISWVRQAPGQGLEWMGGIIPIFDTANYAQKFQGRVTITADESTSTAYMELSSLRSEDTAVYYCARPGLAAAYDTGNLDYWGQGTLVTVSS
VL: B3 VL with N30D, D31S, G91R, G92E, H93Y, A94W, I96L
notes: IgG2sigma/kappa; VH 42, VL 52; also called PD1H131/PD1L67
EC50 [4]: 0.05 µg/mL
koff [5]: 0.000998 s⁻¹
Kd [6]: 2.53 nM
koff [6]: 0.000979 s⁻¹
kon [6]: 387000 M⁻¹ s⁻¹
Kd [7]: 2.6 nM
kon [7]: 389000 M⁻¹ s⁻¹
koff [8]: 0.000959 s⁻¹
Kd [9]: 5.95 nM
koff [9]: 0.00386 s⁻¹
kon [9]: 649000 M⁻¹ s⁻¹
percentage ligand not blocked at 1 µg/ml [10]: 7%
percentage ligand not blocked at 10 µg/ml [10]: 6%
Kd [11]: 2.5 nM
kon [11]: 384000 M⁻¹ s⁻¹

B4: PD1B164 (antibody, human IgG2, kappa, V domains shown)
VH: B2 VH
VL: B3 VL with N30R, D31S, N53Y, G91R, G92D, H93Y, A94W, I96L
notes: IgG2sigma/kappa; VH 42, VL 53; also called PD1H131/PD1L71
EC50 [4]: 0.06 µg/mL
koff [5]: 0.000291 s⁻¹
Kd [6]: 1.07 nM
koff [6]: 0.000287 s⁻¹
kon [6]: 267000 M⁻¹ s⁻¹
Kd [7]: 1.09 nM
kon [7]: 267000 M⁻¹ s⁻¹
koff [8]: 0.000282 s⁻¹
Kd [9]: 2.92 nM
koff [9]: 0.00131 s⁻¹
kon [9]: 448000 M⁻¹ s⁻¹
percentage ligand not blocked at 1 µg/ml [10]: 6%
percentage ligand not blocked at 10 µg/ml [10]: 3%
Kd [11]: 1.06 nM
kon [11]: 267000 M⁻¹ s⁻¹

B6: PD1B71 (antibody, V domains shown)
VH: B7 VH with K30S, V33A, H35S, Y100T, V101L, R102D, A103R, M106H
VL: B7 VL
notes: Tested as IgG2sigma/kappa; also called PD1H108/PH9L3
Kd [12]: 52 nM
koff [12]: 0.0196 s⁻¹
kon [12]: 377000 M⁻¹ s⁻¹
Kd [13]: 120 nM
koff [13]: 0.0277 s⁻¹
kon [13]: 231000 M⁻¹ s⁻¹
EC50 [4]: 0.13 µg/mL
koff [14]: 0.0207 s⁻¹
kon [14]: 417000 M⁻¹ s⁻¹
Kd [6]: 66.8 nM
koff [6]: 0.0203 s⁻¹
kon [6]: 304000 M⁻¹ s⁻¹
IC50 [15]: 0.014 to 0.015 µg/mL
Kd [16]: 24.7 nM
kon [16]: 976000 M⁻¹ s⁻¹
Kd [9]: 49.9 nM
koff [9]: 0.0273 s⁻¹
kon [9]: 548000 M⁻¹ s⁻¹
Kd [17]: 23.5 nM
koff [17]: 0.0225 s⁻¹
kon [17]: 955000 M⁻¹ s⁻¹
koff [18]: 0.023 s⁻¹
Kd [19]: 22.4 nM
koff [19]: 0.0219 s⁻¹
kon [19]: 933000 M⁻¹ s⁻¹
Kd [20]: 61.4 nM
percentage ligand not blocked at 1 µg/ml [10]: 6%
percentage ligand not blocked at 10 µg/ml [10]: 9%
EC50 [21]: 0.13 to 0.47 µg/mL
Kd [22]: 44.4 nM
koff [22]: 0.0185 s⁻¹
kon [22]: 337000 M⁻¹ s⁻¹
IC50 [23]: 0.035 µg/mL
IC50 [24]: 0.024 µg/mL

Reference: patent US20210277110A1 (Janssen / Centocor, published 2021)
